Assay results reported in patent US20130011412A1.

T1: recombinant human lymphotoxin-α homotrimer (human LTα3) (human) (UniProt P01374)
T1 sequence (looked up): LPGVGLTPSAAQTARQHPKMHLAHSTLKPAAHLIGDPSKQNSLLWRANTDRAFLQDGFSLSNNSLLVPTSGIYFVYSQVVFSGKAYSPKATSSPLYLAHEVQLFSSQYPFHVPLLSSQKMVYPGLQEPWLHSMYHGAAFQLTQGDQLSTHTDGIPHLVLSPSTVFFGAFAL


Biological target: T1, recombinant human lymphotoxin-α homotrimer (human LTα3) (human)
Assay: plate-based ELISA against LTα

Binder	relative binding (EC50 of the variant / EC50 of version 5)
3F12 version 8 (3F12.v5 with G95A, CDR-H3) (antibody, IgG1, V domains shown) VH: EVQLVESGGGLVQPGGSLRLSCAASGYTFSSYWIEWVRQAPGKGLEWVGEISPGSGSTNYNEEFKGRATFSADNSKNTAYLQMNSLRAEDTAVYYCADAYHGYWGQGTLVTVSS VL: DIQMTQSPSSLSASVGDRVTITCKSSQSLLYSTNQKNFLAWYQQKPGKAPKLLIYWASTRDSGVPSRFSGSGSGTDFTLTISSLQPEDFATYYCQQYYSYPRTFGQGTKVEIK	> 100
3F12 version 10 (3F12.v5 with H100A, CDR-H3) (antibody, IgG1, V domains shown) VH: EVQLVESGGGLVQPGGSLRLSCAASGYTFSSYWIEWVRQAPGKGLEWVGEISPGSGSTNYNEEFKGRATFSADNSKNTAYLQMNSLRAEDTAVYYCADGYAGYWGQGTLVTVSS VL: DIQMTQSPSSLSASVGDRVTITCKSSQSLLYSTNQKNFLAWYQQKPGKAPKLLIYWASTRDSGVPSRFSGSGSGTDFTLTISSLQPEDFATYYCQQYYSYPRTFGQGTKVEIK	> 100
